Results taken from patent publication US6514942B1, “Methods and compositions for stimulating T-lymphocytes” (The Board of Regents, The University of Texas System, priority 1995, dated 2003).
Entries after “also recorded” stand apart in the source; their conditions may differ. One block for each sequence: values may come before it.

Key:
CTL-34 = assay: Recognition of HER-2 peptides by ovarian tumor associated CTL (lysis of peptide-sensitized targets); type: cell-based, human
Experimental: Target cells were labeled with ^51Cr (Na^51CrO4; Amersham, Arlington Heights, Ill.) for 90 min at 37° C. (Ioannides et al., 1991; Ioannides et al., 1991), or overnight in RPMI medium, containing 10% FCS, 100 μg/ml L-glutamine and 40 μg/ml gentamycin (RPMI-FCS), then washed and incubated with the effector cells in complete RPMI-FCS in an incubator with 5% CO2. Targets were incubated either with 25 μM of peptide overnight during labeling, or with 10 μM peptide for 2 h at 37° C. in RPMI-FCS, then washed three times before being incubated with effector cells. Separate controls for spontaneous and total lysis of targets were made for each peptide pulsed target (Ioannides et al., 1993; Fisk et al., 1994; Gammon et al., 1992). After 4-5 h of incubation 100 μl of supernatant were collected and counted. Percent lysis was calculated from the formula: 100×[(E−S)/(T−S)], were E=experimental release, S=release in the absence of CTL, T=release in 2 M HCl.

HLA-A2 of T2 cells = target: T1, HLA-A2 of T2 cells (Homo sapiens, UniProt P04439, D140Y/D185E/D98H/E176V/E277Q/G131W/G231S/I119V/I121R/I166T/I218V/L300P/L318F/N151K/N90K/P208A/P217A/Q86G/Q94H/R138H/R169H/T345S); assay: Reactivity of MA2.1 mAb with T2 cells after culture with peptide (immunofluorescence, FL1); type: cell-based; conditions: for FL1 of T2 cells stained with MA2.1 mAb: peptide 50 μg/ml, overnight culture in IMDM-FCS; for reactivity of MA2.1 mAb with HLA-A2: study repeated with peptides dissolved in DMSO
T1 construct: cell surface expression of HLA-A2 is lower (30-40%) than in normal LBL lines transfected with HLA-A2; endogenous in cells; host or cells: T2 (transport deletion mutant) human lymphoblastoid cells, obtained from Dr. Peter Creswell
Experimental: FIG. 5A. Effects of HER-2 peptides on reactivity of MA2.1 mAb with T2 cells. Fluorescence analysis and determination of FL1 were performed as described (Stauss et al., 1992). Peptides were added to T2 cells at 50 μg/ml (final concentration). After overnight culture, in IMDM-FCS, cells were washed and the levels of HLA-A2 expression were determined using HLA-A2 specific mAb.
mAbs to CD3 (OKT3-FITC), CD4 (OKT4-FITC) and CD8 (OKT8-FITC) were obtained from Ortho Diagnostic (Ortho, Raritan, N.J.), mAb W6/32 (anti-HLA, -A, -B, -C) from Dako (Dako-Dakopatts, Denmark); HLA-A2 reacting mAb BB7.2 and MA2.1 from ATCC. Immunofluorescence studies were performed as described in Example 1.
To determine whether these peptides and longer analogs affect HLA-A2 conformation as an indication of HLA-A2 binding, the effects of HER-2 peptides on the reactivity of conformationally dependent mAb MA2.1 and BB.7.2 were examined with HLA-A2 of T2 cells. The human cell line T2 has a defect affecting endogenous peptide loading of MHC class I molecules. As a consequence, cell surface expression of HLA-A2 is lower (30-40%) than in normal LBL lines transfected with HLA-A2 (e.g., C1R) but the reactivity of MA2.1 and BB.7.2 mAb is increased when certain HLA-A2 binding peptides are added to the culture medium (Anderson et al., 1993). Although most human MHC class I molecules cannot be induced at the low temperatures used for their murine counterparts because of fundamental structural differences between human and mouse class I (Anderson et al., 1993), the fact that they express few endogenous (mainly signal) peptides (Zweerink et al., 1993) increases the sensitivity of detection of peptide-HLA-A2 interaction.

[1] = test system: OVA-16 (HLA-A2+, HER-2high) ovarian tumor; assay: Cold target inhibition of OVA-16 lysis by 41.CD8+ CTL with peptide-pulsed C1R:A2 cells; type: cell-based, human; conditions: cold:hot 2:1, E:T 10:1, 4- and 20-h assays
Experimental: (§1) FIG. 4A. Target specificity of the 41.CD8^+ CTL were tested for the ability to lyse 5^1Cr-labeled OVA-16 at an E:T ratio of 10:1. C1R:A2 cells (A2.1) were incubated with synthetic peptides (D125, C43, C85), washed, and used in cold target inhibition studies at a cold:hot ratio of 2:1. Cytotoxicity studies were performed for 5 hr. Results represent the mean of three determinations. The variability between samples was less than 10%. The differences between determination are statistically significant (P<0.03) as determined by Student's t test. Percentage inhibition is indicated in parentheses.
as §1, with “FIG. 4B.” for “FIG. 4A.”, “lyse ^51Cr-labeled” for “lyse 5^1Cr-labeled”, “for 20” for “for 5”
(§2) Tumor cells and fibroblasts were labeled with 200 μCi of ^51Cr (Na^51CrO4; Amersham, Arlington Heights, Ill.) for 90 min at 37° C. (Ioannides et al., 1991). Lymphoblastoid cells and HLA-A2 transfectants were labeled overnight in RPMI-FCS, then washed three times and incubated with effector cells in RPMI-FCS in an incubator with 5%. CO2 (Bednarek et al., 1991; Gammon et al., 1992). When peptide recognition was determined, targets were incubated with 25 μM of peptides overnight during ^51Cr labeling or with 10 μM peptide for 2 h at 37° C. in RPMI-FCS then washed three times before being incubated with effector cells. Separate controls for spontaneous and total lysis were made for each peptide-pulsed target (Ioannides et al., 1991; Bednarek et al., 1991; Gammon et al., 1992). After 4-5 h, 100 μl of supernatant was collected and counted. To determine maximum lysis in 20-h assays, plates were left undisturbed in the incubator and the supernatant was collected after overnight incubation. For cold target inhibition studies, C1R:A2 cells were preincubated with HER-2 or control peptides overnight, then washed and admixed with ^51Cr-labeled targets at 2:1 and 6:1 (cold:hot targets) ratios. Percentage lysis was calculated from the formula: 100×[(E−S)/(T−S)], where E is experimental release, S is release in the absence of CTL, and T is release in 2 M HCl.
To confirm that the 41.CD8^+ CTL line recognizes epitopes on HER-2^high tumors contained on peptides used for stimulation, cold target inhibition studies were performed. […]

C1R:A2 cells [2] = assay: Ag specificity of the 41.CD8+ CTL line on peptide-pulsed targets; type: cell-based, human; conditions: peptide-pulsed C1R:A2, E:T 10:1
Experimental: FIG. 2A. Ag specificity of the 41.CD8^+ CTL line. C1R:A2 cells were pre-pulsed with either HER-2 peptides or control MUC-1 peptides before being incubated with effectors. The effector to target ratio was 10:1. C1R:A1 and C1R:A3 targets were pre-pulsed with the same peptides in the same conditions as C1R:A2 cells. Results for C1R:A1 and C1R:A3 show the difference between specific lysis of targets preincubated with peptides and control C1R:A1 and C1R:A3 targets. Specific lysis of control C1R:A1 and C1R:A3 cells was less than 10% at the same E:T ratio. Shown in FIG. 2A are results after 4 hrs' incubation.
as §2
These cultures were propagated and expanded by periodic cycles of restimulation with peptide-pulsed fresh autologous PBMC as antigen-presenting cells. After the fourth stimulation cells were gradually adapted to growth in RPMI-FCS by replacing 25% of the culture medium every 3 days with RPMI-FCS over a period of 2 weeks. CD3^+CD8^+CD4^− cells were isolated from bulk CTL cultures by positive selection on anti-CD8 mAb-coated culture flasks (AIS Micro CELLector, Applied Immune Sciences, Menlo Park, Calif.) as described (Letessier et al., 1991). Isolated CD8^+ cells were restimulated with HER-2 peptide-pulsed PBMC, either autologous or in some instances allogeneic that matched only HLA-A2 with the responding cells. […]

C1R:A2 cells [3] = assay: In vitro induction of peptide-reactive CTL from PBMC, 51Cr release on peptide-pulsed C1R:A2; type: cell-based, human; conditions: PBMC stimulated with the peptide
[4] = target: T2, HLA-A2 on indicator T2 cells (Homo sapiens, UniProt P04439, D140Y/D185E/D98H/E176V/E277Q/G131W/G231S/I119V/I121R/I166T/I218V/L300P/L318F/N151K/N90K/P208A/P217A/Q86G/Q94H/R138H/R169H/T345S); assay: Stabilization of HLA-A2 expression on indicator line T2; type: cell-based; conditions: indicator T2 cells
T2 construct: cell surface expression of HLA-A2 is lower (30-40%) than in normal LBL lines transfected with HLA-A2; endogenous in cells; host or cells: T2 (transport deletion mutant) human lymphoblastoid cells, obtained from Dr. Peter Creswell
From the text: Since HER-2 is a self-antigen, during thymic selection, a number of T-cells carrying receptors with high affinity for the HLA-peptide complex are silenced either by elimination ro tolerization. A pre-condition for induction of a high affinity TCR-(MHC+peptide) interactions, is a stable (MHC+peptide) complex. […] However, stabilization of HLA-Class I binding by exogenously added peptide is dependent on introduction of dominant anchors in positions P2 and P9 which are not recognized by TCR.
Peptide D113, […] (SEQ ID NO:17), is the natural nonapeptide […].

three HLA-A2+ CTL lines = assay: Recognition of nonapeptides by CTLs associated with and lysing ovarian tumors; type: cell-based, human; conditions: for CTL lines recognizing the peptide: of three HLA-A2+ CTL lines; for designation based on the levels of lysis induced: three HLA-A2+ CTL lines

Sequence: CLTSTVQLV [Peptide E90, HER-2:788-796]
% of C85 (target lysis by CTL in the presence of peptide as % of positive control C85) (CTL-34): 1.149 % of C85

Sequence: DLGMGAAKGL [Peptide D99, decapeptide HER-2:1089-1098]
FL1 of T2 cells stained with MA2.1 mAb (HLA-A2 of T2 cells): slight increase in FL1

Sequence: ELVSEFSKV [Peptide C83, C85 analog with strengthened P9 and P8]
FL1 of T2 cells stained with MA2.1 mAb (HLA-A2 of T2 cells): did not increase further the FL1

Sequence: GLTSAPDTRV [Peptide D125, control analog of Muc-1 core peptide (Muc-1:8-17) with introduced HLA-A2 anchors, reference compound]
inhibition of tumor lysis by peptide-pulsed cold targets [1]: inability of C1R:A2 cells alone or pulsed with D125 to mediate the same inhibition
recognition by 41.CD8+ CTL line (C1R:A2 cells [2]): at a much lesser extent

Sequence: GLYQGCQVV [Peptide D115, HER-2:48-56(48H→G) analog]
FL1 of T2 cells stained with MA2.1 mAb (HLA-A2 of T2 cells): increased FL1 even further; also recorded: higher increase in reactivity of MA2.1 mAb with HLA-A2 than D96/D97
reactivity of MA2.1 mAb with HLA-A2 (HLA-A2 of T2 cells): unable to increase reactivity
Ag specificity of CTL response induced by the peptide (C1R:A2 cells [3]): less specific CTL than D96/D97
stabilization of HLA-A2 [4]: significantly higher improvement

Sequence: LQVFETLEEITGYL [Peptide D120, HER-2:397-410]
FL1 of T2 cells stained with MA2.1 mAb (HLA-A2 of T2 cells): increased the FL1 only slightly

Sequence: LVSEFSRMARDPQ [Peptide B69, HER-2:972-984]
FL1 of T2 cells stained with MA2.1 mAb (HLA-A2 of T2 cells): failed to significantly increase FL1

Sequence: PLQPEQLQV [Peptide E77, HER-2:391-399]
% of C85 (target lysis by CTL in the presence of peptide as % of positive control C85) (CTL-34): 0.300 % of C85
CTL lines recognizing the peptide (three HLA-A2+ CTL lines): 2/3
designation based on the levels of lysis induced (three HLA-A2+ CTL lines): moderate

Sequence: QLMPYGCLL [Peptide E71, HER-2:798-806]
% of C85 (target lysis by CTL in the presence of peptide as % of positive control C85) (CTL-34): 0.600 % of C85
CTL lines recognizing the peptide (three HLA-A2+ CTL lines): 2/3
designation based on the levels of lysis induced (three HLA-A2+ CTL lines): high

Sequence: QLQVFETLEEI [Peptide D122, HER-2:396-406]
FL1 of T2 cells stained with MA2.1 mAb (HLA-A2 of T2 cells): increased the FL1 only slightly

Sequence: RIAWARTEL [Peptide E37, reference compound]
FL1 of T2 cells stained with MA2.1 mAb (HLA-A2 of T2 cells): failed to affect MA2.1 epitope expression

Sequence: RLLYQGCQVV [Peptide D114, HER-2:47-56(48H→L) analog]
FL1 of T2 cells stained with MA2.1 mAb (HLA-A2 of T2 cells): increased FL1 even further; also recorded: higher increase in reactivity of MA2.1 mAb with HLA-A2 than D96/D97
reactivity of MA2.1 mAb with HLA-A2 (HLA-A2 of T2 cells): unable to increase reactivity
Ag specificity of CTL response induced by the peptide (C1R:A2 cells [3]): lacked Ag specificity
stabilization of HLA-A2 [4]: little improvement on stabilization of HLA-A2

Sequence: SLADPAHGV [Peptide D132, control analog of Muc-1 core peptide with introduced P2 anchor, reference compound]
recognition by 41.CD8+ CTL line (C1R:A2 cells [2]): at a much lesser extent

Sequence: VLVKSPNHV [Peptide E89, HER-2:851-859]
% of C85 (target lysis by CTL in the presence of peptide as % of positive control C85) (CTL-34): 1.149 % of C85
CTL lines recognizing the peptide (three HLA-A2+ CTL lines): 2/3
designation based on the levels of lysis induced (three HLA-A2+ CTL lines): high

More lines, now with the values ahead:

FL1 of T2 cells stained with MA2.1 mAb (HLA-A2 of T2 cells): moderate increase in FL1
Sequence: EIWTHSTKV [Peptide E39, reference compound]

FL1 of T2 cells stained with MA2.1 mAb (HLA-A2 of T2 cells): failed to induce an increase in FL1
Sequence: LLSLALMLL [Peptide E41, reference compound]

FL1 of T2 cells stained with MA2.1 mAb (HLA-A2 of T2 cells): very high increase in FL1
Sequence: NLGPWIQQV [Peptide E38, reference compound]

FL1 of T2 cells stained with MA2.1 mAb (HLA-A2 of T2 cells): failed to induce an increase in FL1
Sequence: SLALMLLWL [Peptide E40, reference compound]
